Assay results reported in PMC7948404.

Target: CysLTR2-V2(A)6 L129Q (GFP10 fusion) (UniProt Q9NS75)
Experiment: FRET or BRET; BRET^2 saturation-binding in live HEK293T cells: 5 ng β-arrestin2-RLuc3 and 0-200 ng receptor-GFP10 DNA per well; unstimulated, or WT with 1 μM LTD4 for 10 min at RT; BRET^2 ratio against normalized GFP10 fluorescence, one-site fit with shared Bmax; constitutive activity from Bmax/Kd, normalized to the fully LTD4-stimulated WT receptor

UniProt Q9NS75, sequence (Q9NS75 other isoform, or with tags, fused parts or gaps L129Q | L129Q): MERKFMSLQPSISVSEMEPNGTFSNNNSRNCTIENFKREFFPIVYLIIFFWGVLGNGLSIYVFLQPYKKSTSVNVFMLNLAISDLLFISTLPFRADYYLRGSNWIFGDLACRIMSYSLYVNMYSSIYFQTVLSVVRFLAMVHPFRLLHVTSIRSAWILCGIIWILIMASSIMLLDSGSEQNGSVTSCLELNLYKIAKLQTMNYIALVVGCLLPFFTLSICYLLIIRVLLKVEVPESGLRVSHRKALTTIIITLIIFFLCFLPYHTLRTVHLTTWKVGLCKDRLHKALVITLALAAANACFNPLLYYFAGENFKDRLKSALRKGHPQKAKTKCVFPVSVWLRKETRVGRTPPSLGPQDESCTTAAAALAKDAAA

β-arrestin2-RLuc3 (from UniProt P32121 1-409) (natural protein)
constitutive activity of β-arrestin recruitment (% of LTD4-stimulated WT receptor): 17.8%
